# B1: human MASP-3 (protein)
# chain: HTVELNNMFGQIQSPGYPDSYPSDSEVTWNITVPDGFRIKLYFMHFNLESSYLCEYDYVKVETEDQVLATFCGRETTDTEQTPGQEVVLSPGSFMSITFRSDFSNEERFTGFDAHYMAVDVDECKEREDEELSCDHYCHNYIGGYYCSCRFGYILHTDNRTCRVECSDNLFTQRTGVITSPDFPNPYPKSSECLYTIELEEGFMVNLQFEDIFDIEDHPEVPCPYDYIKIKVGPKVLGPFCGEKAPEPISTQSHSVLILFHSDNSGENRGWRLSYRAAGNECPELQPPVHGKIEPSQAKYFFKDQVLVSCDTGYKVLKDNVEMDTFQIECLKDGTWSNKIPTCKIVDCRAPGELEHGLITFSTRNNLTTYKSEIKYSCQEPYYKMLNNNTGIYTCSAQGVWMNKVLGRSLPTCLPECGQPSRSLPSLVKRIIGGRNAEPGLFPWQALIVVEDTSRVPNDKWFGSGALLSASWILTAAHVLRSQRRDTTVIPVSKEHVTVYLGLHDVRDKSGAVNSSAARVVLHPDFNIQNYNHDIALVQLQEPVPLGPHVMPVCLPRLEPEGPAPHMLGLVAGWGISNPNVTVDEIISSGTRTLSDVLQYVKLPVVPHAECKTSYESRSGNYSVTENMFCAGYYEGGKDTCLGDSGGAFVIFDDLSQRWVVQGLVSWGGPEECGSKQVYGVYTKVSNYVDWVWEQMGLPQSVVEPQVER
# B2: catalytically-inactive MASP-1 (S646A) (protein)
# chain: HTVELNNMFGQIQSPGYPDSYPSDSEVTWNITVPDGFRIKLYFMHFNLESSYLCEYDYVKVETEDQVLATFCGRETTDTEQTPGQEVVLSPGSFMSITFRSDFSNEERFTGFDAHYMAVDVDECKEREDEELSCDHYCHNYIGGYYCSCRFGYILHTDNRTCRVECSDNLFTQRTGVITSPDFPNPYPKSSECLYTIELEEGFMVNLQFEDIFDIEDHPEVPCPYDYIKIKVGPKVLGPFCGEKAPEPISTQSHSVLILFHSDNSGENRGWRLSYRAAGNECPELQPPVHGKIEPSQAKYFFKDQVLVSCDTGYKVLKDNVEMDTFQIECLKDGTWSNKIPTCKIVDCRAPGELEHGLITFSTRNNLTTYKSEIKYSCQEPYYKMLNNNTGIYTCSAQGVWMNKVLGRSLPTCLPVCGLPKFSRKLMARIFNGRPAQKGTTPWIAMLSHLNGQPFCGGSLLGSSWIVTAAHCLHQSLDPEDPTLRDSDLLSPSDFKIILGKHWRLRSDENEQHLGVKHTTLHPQYDPNTFENDVALVELLESPVLNAFVMPICLPEGPQQEGAMVIVSGWGKQFLQRFPETLMEIEIPIVDHSTCQKAYAPLKKKVTRDMICAGEKEGGKDACAGDAGGPMVTLNRERGQWYLVGTVSWGDDCGKKDRYGVYSYIHHNKDWIQRVTGVRN
# B3: recombinant MASP-1 (CCP1-CCP2-SP) fragment (enzyme, part only; not given: amino-terminal Strep tag)
# chain, part: GNECPELQPPVHGKIEPSQAKYFFKDQVLVSCDTGYKVLKDNVEMDTFQIECLKDGTWSNKIPTCKIVDCRAPGELEHGLITFSTRNNLTTYKSEIKYSCQEPYYKMLNNNTGIYTCSAQGVWMNKVLGRSLPTCLPVCGLPKFSRKLMARIFNGRPAQKGTTPWIAMLSHLNGQPFCGGSLLGSSWIVTAAHCLHQSLDPKDPTLRDSDLLSPSDFKIILGKHWRLRSDENEQHLGVKHTTLHPKYDPNTFENDVALVELLESPVLNAFVMPICLPEGPQQEGAMVIVSGWGKQFLQRFPETLMEIEIPIVDHSTCQKAYAPLKKKVTRDMICAGEKEGGKDACSGDSGGPMVTLNRERGQWYLVGTVSWGDDCGKKDRYGVYSYIHHNKDWIQRVTGVRNHHHHHH
# How the values were obtained:
# [1] = target: ST-pro-factor D-His, P00746
# [2] = target: purified plasma factor B, P00751
# pro-factor D-His = pro-factor D-His (UniProt P00746)
# ST-pro-factor D-His = ST-pro-factor D-His (UniProt P00746)
# Sequence of ST-pro-factor D-His (P00746 other isoform, or with tags, fused parts or gaps): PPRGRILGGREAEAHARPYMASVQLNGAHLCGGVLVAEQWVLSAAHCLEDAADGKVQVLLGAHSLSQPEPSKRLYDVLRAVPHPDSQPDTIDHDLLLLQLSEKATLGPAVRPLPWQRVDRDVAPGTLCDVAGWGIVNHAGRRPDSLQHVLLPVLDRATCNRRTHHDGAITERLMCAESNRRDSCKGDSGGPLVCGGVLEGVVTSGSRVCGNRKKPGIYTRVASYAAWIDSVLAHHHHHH
# Sequence of ST-pro-factor D-His, P00746 (P00746 whole entry, looked up): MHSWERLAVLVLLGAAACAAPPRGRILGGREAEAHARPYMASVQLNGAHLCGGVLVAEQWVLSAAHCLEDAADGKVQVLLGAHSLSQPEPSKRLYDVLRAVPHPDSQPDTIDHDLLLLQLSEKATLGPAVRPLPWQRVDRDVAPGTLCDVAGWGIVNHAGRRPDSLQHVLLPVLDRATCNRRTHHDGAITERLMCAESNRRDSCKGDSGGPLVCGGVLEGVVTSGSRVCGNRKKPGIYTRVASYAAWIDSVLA
# Sequence of pro-factor D-His, P00746 (P00746 whole entry, looked up): as above
# Sequence of purified plasma factor B, P00751 (P00751 26-764): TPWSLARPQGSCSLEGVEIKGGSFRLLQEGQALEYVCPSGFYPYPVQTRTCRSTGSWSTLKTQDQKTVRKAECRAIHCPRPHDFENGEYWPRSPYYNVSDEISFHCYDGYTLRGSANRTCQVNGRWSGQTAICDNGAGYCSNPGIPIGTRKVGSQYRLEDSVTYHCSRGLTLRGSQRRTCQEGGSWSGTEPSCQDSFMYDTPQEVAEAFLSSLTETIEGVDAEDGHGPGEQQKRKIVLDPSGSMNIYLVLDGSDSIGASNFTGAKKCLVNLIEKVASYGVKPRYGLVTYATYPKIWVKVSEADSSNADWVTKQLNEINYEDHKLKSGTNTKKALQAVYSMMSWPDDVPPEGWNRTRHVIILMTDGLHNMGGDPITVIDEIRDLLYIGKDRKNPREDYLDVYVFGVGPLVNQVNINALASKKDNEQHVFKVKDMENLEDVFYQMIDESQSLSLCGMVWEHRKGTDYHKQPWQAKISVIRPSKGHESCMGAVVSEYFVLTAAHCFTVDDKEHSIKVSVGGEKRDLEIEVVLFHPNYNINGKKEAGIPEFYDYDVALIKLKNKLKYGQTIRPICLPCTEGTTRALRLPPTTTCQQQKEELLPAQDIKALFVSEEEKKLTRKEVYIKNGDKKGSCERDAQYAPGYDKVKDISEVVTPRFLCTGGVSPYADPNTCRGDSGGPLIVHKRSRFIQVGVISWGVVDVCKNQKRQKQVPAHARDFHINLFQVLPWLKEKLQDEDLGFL
# Sequence of pro-factor D-His (P00746 other isoform, or with tags, fused parts or gaps): as the sequence (P00746 other isoform, or with tags, fused parts or gaps) above
protein,measurement,setting,value
B1,"cleavage of pro-factor D (Western blot), 80 ng MASP-3, 70 ng substrate, 75 minutes at 37 C",[1],MASP-3 cleaves approximately 50% of pro-factor D into factor D (lane 1)
same,"factor B cleavage (Coomassie-stained SDS-PAGE), with C3(H2O)",[2],"either MASP-3 or pro-factor D are able to mediate factor B cleavage, as long as C3 is present"
B2,cleavage of pro-factor D (Western blot),"pro-factor D-His, P00746",The catalytically-inactive full length MASP-3 (S679A; lane 3) and MASP-1 (S646A; lane 3) failed to cleave either substrate
same,cleavage of pro-factor D (Western blot),[1],The catalytically-inactive full length MASP-3 (S679A; lane 3) and MASP-1 (S646A; lane 3) failed to cleave either substrate
B3,cleavage of pro-factor D (Western blot),pro-factor D-His,Identical results were obtained with the pro-factor D-His6 polypeptide (not shown)
same,cleavage of pro-factor D (Western blot),ST-pro-factor D-His,only full length MASP-3 (lane 2) and the MASP-1 CCP1-CCP2-SP) fragment (lane 5) cleaved ST-pro-factor D-His6

# — US20130344073
